Assay results published in article PMC9529347.

Biological target: SARS-CoV-1 RBD-Fc (RBD N321-P513 fused to CH2 and CH3 of mouse IgG1) (SARS-CoV-1)
Test: SPR

soluble human ACE2, truncated ectodomain (S19-D615), C-terminal 6xHIS-tag, sequence (Q9BYF1 19-615): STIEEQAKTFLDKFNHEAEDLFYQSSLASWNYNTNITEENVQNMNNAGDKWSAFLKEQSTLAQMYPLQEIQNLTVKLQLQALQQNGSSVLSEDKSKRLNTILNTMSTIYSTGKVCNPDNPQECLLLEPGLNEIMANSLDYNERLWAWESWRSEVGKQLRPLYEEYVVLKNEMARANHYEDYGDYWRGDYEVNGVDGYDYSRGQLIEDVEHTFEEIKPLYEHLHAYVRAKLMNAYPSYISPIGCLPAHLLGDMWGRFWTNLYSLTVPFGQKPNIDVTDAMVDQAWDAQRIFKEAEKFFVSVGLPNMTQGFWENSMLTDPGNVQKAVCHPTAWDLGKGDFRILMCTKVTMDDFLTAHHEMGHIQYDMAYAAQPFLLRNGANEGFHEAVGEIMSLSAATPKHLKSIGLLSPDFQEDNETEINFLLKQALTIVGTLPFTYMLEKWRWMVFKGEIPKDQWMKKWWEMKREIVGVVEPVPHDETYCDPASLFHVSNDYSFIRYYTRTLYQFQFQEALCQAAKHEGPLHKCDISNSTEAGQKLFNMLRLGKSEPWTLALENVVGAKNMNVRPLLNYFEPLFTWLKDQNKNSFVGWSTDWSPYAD

soluble human ACE2, truncated ectodomain (S19-D615), C-terminal 6xHIS-tag (from UniProt Q9BYF1 19-615) (receptor)
Kd: 385 nM
